These results are taken from patent US20090192084A1 (CALIFORNIA INSTITUTE OF TECHNOLOGY, published 2009).

The chains are these.
B1: Flag-p47 (other, UniProt O35987 1-370, looked up)
chain: MAEERQDALREFVAVTGAEEDRARFFLESAGWDLQIALASFYEDGGDEDIVTISQATPSSVSRGTAPSDNRVTSFRDLIHDQDEEEEEEEGQRFYAGGSERSGQQIVGPPRKKSPNELVDDLFKGAKEHGAVAVERVTKSPGETSKPRPFAGGGYRLGAAPEEESAYVAGERRRHSGQDVHVVLKLWKTGFSLDNGDLRSYQDPSNAQFLESIRRGEVPAELRRLAHGGQVNLDMEDHRDEDFVKPKGAFKAFTGEGQKLGSTAPQVLNTSSPAQQAENEAKASSSILINEAEPTTNIQIRLADGGRLVQKFNHSHRISDIRLFIVDARPAMAATSFVLMTTFPNKELADENQTLKEANLLNAVIVQRLT
notes: also called RDB 2148; not shown: N-terminal Flag tag

One assay deals with T1, endogenous p97 (human, UniProt P55072 2-806).
T1 construct: also called VCP
Kind of assay: Flag co-IP, 293 cells, MudPIT MS. Here is the method: (§1) For immunoprecipitation experiments, the cells were lysed in buffer A (50 mM HEPES/KOH, pH 7.5; 5 mM Mg(OAc)₂; 70 mM KOAc; 0.2% Triton X-100; 10% glycerol; 0.2 mM EDTA; protease inhibitors) and incubated with anti-Flag agarose beads (Sigma) or anti-Myc sepharose beads (Covance).
(§2) Mass spectrometrical sample analysis was performed as described previously (Graumann et al., 2004) using a high-pressure liquid chromatography pump (Agilent) in line to a LCQ DecaXP electrospray ion trap mass spectrometer (ThermoFinnigan). In brief, 2-4 mg of protein extract were incubated with anti-Flag or anti-Myc beads and the immunoprecipitated proteins were eluted with saturated urea. The eluates were then proteolitically digested using sequentially endoproteinase Lys-C and trypsin. The resulting peptide mixtures were pressure-loaded onto triphasic microcapillary columns and sample separation was achieved using a chromatography program consisting of six salt steps, each followed by an organic gradient. The eluting peptides were electrosprayed into the mass spectrometer and the column eluate was continuously analyzed. One full-range mass scan ([…]) was followed by three data-dependent tandem mass spectrometry (MS/MS) spectra. Sequence database matching was performed against the IPI human database (Kersey et al., 2004) version 3.15.1 using Sequest (Eng et al., 1994) and the results were filtered with DTASelect (Tabb et al., 2002), using the parameters indicated in Graumann et al. (2004).

Assay [1] has as its target T2, endogenous NPL4 (human, UniProt Q8TAT6-2 2-617, limits assumed).
T2 sequence (looked up): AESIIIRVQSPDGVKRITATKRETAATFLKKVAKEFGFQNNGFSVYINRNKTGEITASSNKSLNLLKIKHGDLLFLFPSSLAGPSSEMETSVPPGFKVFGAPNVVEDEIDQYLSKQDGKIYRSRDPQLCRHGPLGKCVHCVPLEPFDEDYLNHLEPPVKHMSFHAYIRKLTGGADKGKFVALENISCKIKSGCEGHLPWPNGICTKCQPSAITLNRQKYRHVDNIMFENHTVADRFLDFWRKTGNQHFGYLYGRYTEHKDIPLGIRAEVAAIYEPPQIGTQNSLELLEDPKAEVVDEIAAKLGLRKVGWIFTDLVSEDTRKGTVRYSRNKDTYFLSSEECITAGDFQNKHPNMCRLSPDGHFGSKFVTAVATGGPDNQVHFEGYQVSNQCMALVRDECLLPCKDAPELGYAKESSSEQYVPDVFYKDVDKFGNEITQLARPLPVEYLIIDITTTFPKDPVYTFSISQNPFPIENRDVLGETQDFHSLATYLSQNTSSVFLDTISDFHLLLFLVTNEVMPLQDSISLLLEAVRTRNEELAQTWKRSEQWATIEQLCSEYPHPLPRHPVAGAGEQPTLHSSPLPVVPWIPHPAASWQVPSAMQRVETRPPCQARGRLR
The experiment in a line: Flag co-IP, 293 cells, MudPIT MS. The method, then: as §1, §2

Assay [2] concerns the target T2, endogenous NPL4. Kind of assay: Flag co-IP, mass spectrometry and immunoblotting.
For the assay “Flag-p47”, the target named is B1. Kind of assay: Flag co-IP, mass spectrometry and immunoblotting. (A western blot detects proteins with antibodies after separation by electrophoresis.)

T1 sequence (P55072 2-806 limits assumed): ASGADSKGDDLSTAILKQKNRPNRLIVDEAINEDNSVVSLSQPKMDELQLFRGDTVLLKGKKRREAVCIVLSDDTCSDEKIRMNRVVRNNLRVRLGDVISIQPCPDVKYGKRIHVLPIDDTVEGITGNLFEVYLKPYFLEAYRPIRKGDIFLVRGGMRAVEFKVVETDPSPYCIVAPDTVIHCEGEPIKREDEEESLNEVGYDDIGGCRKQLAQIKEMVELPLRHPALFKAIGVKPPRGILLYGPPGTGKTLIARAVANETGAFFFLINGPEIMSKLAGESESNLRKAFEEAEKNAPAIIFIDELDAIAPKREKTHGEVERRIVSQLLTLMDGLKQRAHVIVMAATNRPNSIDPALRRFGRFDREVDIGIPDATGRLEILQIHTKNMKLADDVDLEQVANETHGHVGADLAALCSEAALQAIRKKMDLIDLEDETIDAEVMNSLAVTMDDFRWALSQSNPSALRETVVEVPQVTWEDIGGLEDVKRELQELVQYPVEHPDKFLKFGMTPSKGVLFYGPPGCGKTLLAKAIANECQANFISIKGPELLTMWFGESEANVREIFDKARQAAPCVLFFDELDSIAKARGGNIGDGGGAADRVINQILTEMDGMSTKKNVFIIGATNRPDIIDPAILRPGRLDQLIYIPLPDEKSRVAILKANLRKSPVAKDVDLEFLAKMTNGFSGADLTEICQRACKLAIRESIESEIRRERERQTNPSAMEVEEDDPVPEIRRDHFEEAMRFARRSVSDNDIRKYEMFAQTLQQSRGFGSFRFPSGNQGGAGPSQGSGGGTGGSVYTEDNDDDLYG

In the assay with endogenous p97, B1 came in with a sequence count of 172, a sequence coverage of 82.7% and a spectrum count of 1610. Moreover, in the assay with endogenous NPL4 [1], the sequence count came to 2, the sequence coverage is 6% and the spectrum count came out at 2. The binding result with endogenous NPL4 [2] is listed as “no binding”.

B2: endogenous UFD1 (other, human, UniProt Q92890-1 1-343, looked up)
chain: MFSFNMFDHPIPRVFQNRFSTQYRCFSVSMLAGPNDRSDVEKGGKIIMPPSALDQLSRLNITYPMLFKLTNKNSDRMTHCGVLEFVADEGICYLPHWMMQNLLLEEDGLVQLETVNLQVATYSKSKFCYLPHWMMQNLLLEEGGLVQVESVNLQVATYSKFQPQSPDFLDITNPKAVLENALRNFACLTTGDVIAINYNEKIYELRVMETKPDKAVSIIECDMNVDFDAPLGYKEPERQVQHEESTEGEADHSGYAGELGFRAFSGSGNRLDGKKKGVEPSPSPIKPGDIKRGIPNYEFKLGKITFIRNSRPLVKKVEEDEAGGRFVAFSGEGQSLRKKGRKP
For B2, in the assay with Flag-p47, the binding result is “no binding”.
